Measurements published in PMC6677171 (2019).

Biological target: Mis16 (S. pombe), full length, affinity tag removed (S. pombe, UniProt O94244 1-430)
Test: ITC

Sequence of Mis16 (S. pombe), full length, affinity tag removed (O94244 whole entry): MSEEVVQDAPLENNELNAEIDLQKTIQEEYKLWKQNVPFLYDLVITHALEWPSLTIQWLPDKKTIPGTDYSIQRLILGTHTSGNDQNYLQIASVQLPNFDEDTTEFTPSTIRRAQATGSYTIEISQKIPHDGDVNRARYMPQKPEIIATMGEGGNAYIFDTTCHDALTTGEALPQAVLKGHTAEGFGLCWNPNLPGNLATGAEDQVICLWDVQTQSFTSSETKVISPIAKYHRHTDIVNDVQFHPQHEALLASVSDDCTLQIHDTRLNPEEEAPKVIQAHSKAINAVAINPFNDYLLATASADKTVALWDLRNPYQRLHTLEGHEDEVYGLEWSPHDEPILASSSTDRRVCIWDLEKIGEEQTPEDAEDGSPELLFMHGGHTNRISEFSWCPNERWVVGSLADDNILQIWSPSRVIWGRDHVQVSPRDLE

LHNRVFLRANVRAVKM [Mis19 C-terminal peptide (residues 97–112) R105A]
Kd: > 1 µM
